Test results: patent US20220017589A1 (BEIJING QL BIOPHARMACEUTICAL, published 2022)
Substitutions are numbered along the chain they refer to. Values belong to the binder of their own block, whether it stands above or below them.

How the values were obtained:
Assay in all cases: cell-based or functional assay
human GLP-1 receptor = human GLP-1 receptor (human, UniProt P43220 24-463)
human GFRAL [1] = biological target: T1, human GFRAL (human, UniProt Q6UXV0 19-394)
T1 sequence (looked up): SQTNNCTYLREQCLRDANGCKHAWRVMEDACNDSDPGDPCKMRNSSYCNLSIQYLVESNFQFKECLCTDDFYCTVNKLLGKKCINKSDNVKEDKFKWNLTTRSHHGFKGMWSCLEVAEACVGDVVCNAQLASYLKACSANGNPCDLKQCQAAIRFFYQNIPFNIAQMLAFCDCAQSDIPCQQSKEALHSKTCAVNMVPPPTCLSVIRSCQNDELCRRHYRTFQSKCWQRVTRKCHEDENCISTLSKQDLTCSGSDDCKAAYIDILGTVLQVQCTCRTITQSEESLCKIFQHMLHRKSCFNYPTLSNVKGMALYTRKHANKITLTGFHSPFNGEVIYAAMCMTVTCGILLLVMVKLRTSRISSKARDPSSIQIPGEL

human GFRAL [2] = biological target: T1, human GFRAL; remark: listed apart in the source

GLP-1 activity (EC50, pM) (human GLP-1 receptor): 1.2 pM | GDF15 activity (EC50, pM) (human GFRAL [1]): 114 pM
B1: MLC045 (ligand)
chain: HGEGTFTSDVSSYLEEQAAREFIAWLVRGGGKQEPGAQPGQEPGAQPGQEPGAQPGQEPGAQPGQEPGAQPGQEPGAQPGAQPGAKPGAQPGAQPGAQPGAQPGAQPGAQPARQGDHCPLGPGRCCRLHTVRASLEDLGWADWVLSPREVQVTMCIGACPSQFRAANLHAQIKTSLHRLRPDTVPAPCCVPASYNPMVLIQRTDTGVSLQTYDDLLARDCHCI
modifications: Moiety A (HOOC-(CH2)16-CO-gGlu-2XADO) on 1K and 55K of Linker (32K and 86K of fusion polypeptide)

GLP-1 activity (EC50, pM) (human GLP-1 receptor): 1.3 pM | GDF15 activity (EC50, pM) (human GFRAL [1]): 70.5 pM
B2: MLC084 (ligand)
chain: B1 chain with R20K, K32G, A69Q, Q70C, K86Q, R180K, R202K, R218K
modifications: Moiety C (HOOC-(CH2)20-CO-gGlu-2XADO-EDA-CO-CH2) on 39C of Linker (70C of fusion polypeptide)

GLP-1 activity (EC50, pM) (human GLP-1 receptor): 1.6 pM | GDF15 activity (EC50, pM) (human GFRAL [1]): 86.8 pM
B3: MLC080 (ligand)
chain: B1 chain with R20K, K32G, E66C, A81Q, Q82E, K86Q, R180K, R202K, R218K
modifications: Moiety B (HOOC-(CH2)16-CO-gGlu-2XADO-EDA-CO-CH2) on 35C of Linker (66C of fusion polypeptide)

GLP-1 activity (EC50, pM) (human GLP-1 receptor): 1.1 pM | GDF15 activity (EC50, pM) (human GFRAL [1]): 32.4 pM
B4: MLC086 (ligand)
chain: B1 chain with R20K, K32G, G68C, A69Q, Q70A, K86Q, R180K, R202K, R218K
modifications: Moiety C (HOOC-(CH2)20-CO-gGlu-2XADO-EDA-CO-CH2) on 37C of Linker (68C of fusion polypeptide)

GLP-1 activity (EC50, pM) (human GLP-1 receptor): 0.94 pM | GDF15 activity (EC50, pM) (human GFRAL [1]): 41.1 pM
B5: MLC074 (ligand)
chain: B1 chain with R20K, K32G, G72C, K86Q, R180K, R202K, R218K
modifications: Moiety B (HOOC-(CH2)16-CO-gGlu-2XADO-EDA-CO-CH2) on 41C of Linker (72C of fusion polypeptide)

GLP-1 activity (EC50, pM) (human GLP-1 receptor): 1.3 pM | GDF15 activity (EC50, pM) (human GFRAL [1]): 48.6 pM
B6: MLC075 (ligand)
chain: B1 chain with R20K, K32G, G72C, K86Q, R180K, R202K, R218K
modifications: Moiety C (HOOC-(CH2)20-CO-gGlu-2XADO-EDA-CO-CH2) on 41C of Linker (72C of fusion polypeptide)

GLP-1 activity (EC50, pM) (human GLP-1 receptor): 1.5 pM | GDF15 activity (EC50, pM) (human GFRAL [1]): 22 pM
B7: MLC085 (ligand)
chain: B1 chain with R20K, K32G, G68C, A69Q, Q70A, K86Q, R180K, R202K, R218K
modifications: Moiety B (HOOC-(CH2)16-CO-gGlu-2XADO-EDA-CO-CH2) on 37C of Linker (68C of fusion polypeptide)

GLP-1 activity (EC50, pM) (human GLP-1 receptor): 1.2 pM | GDF15 activity (EC50, pM) (human GFRAL [1]): 69.8 pM
B8: MLC081 (ligand)
chain: B1 chain with R20K, K32G, E66C, A81Q, Q82E, K86Q, R180K, R202K, R218K
modifications: Moiety C (HOOC-(CH2)20-CO-gGlu-2XADO-EDA-CO-CH2) on 35C of Linker (66C of fusion polypeptide)

GLP-1 activity (EC50, pM) (human GLP-1 receptor): 1.7 pM | GDF15 activity (EC50, pM) (human GFRAL [1]): 52.4 pM
B9: MLC083 (ligand)
chain: B1 chain with R20K, K32G, A69Q, Q70C, K86Q, R180K, R202K, R218K
modifications: Moiety B (HOOC-(CH2)16-CO-gGlu-2XADO-EDA-CO-CH2) on 39C of Linker (70C of fusion polypeptide)

GLP-1 activity (EC50, pM) (human GLP-1 receptor): 3.3 pM | GDF15 activity (EC50, pM) (human GFRAL [1]): 75.5 pM
B10: MLC018 (ligand)
chain: HGEGTFTSDVSSYLEEQAAREFIAWLVRGGGGQEPGAQPGQEPGAQPGQEPGAQPGQEPGAQPGQEPGAQPGQEPGAQPGQEKGAQPGQEPGAQPGQEPGAQPGQEPGAQPARQGDHCPLGPGRCCRLHTVRASLEDLGWADWVLSPREVQVTMCIGACPSQFRAANLHAQIKTSLHRLRPDTVPAPCCVPASYNPMVLIQRTDTGVSLQTYDDLLARDCHCI
modifications: Moiety A (HOOC-(CH2)16-CO-gGlu-2XADO) on 52K of Linker (83K of fusion polypeptide)

GLP-1 activity (EC50, pM) (human GLP-1 receptor): 0.89 pM | GDF15 activity (EC50, pM) (human GFRAL [1]): 79.2 pM
B11: MLC103 (ligand)
chain: B1 chain with K32G, K86Q, Q102K
modifications: Moiety A (HOOC-(CH2)16-CO-gGlu-2XADO) on 71K of Linker (102K of fusion polypeptide)

GLP-1 activity (EC50, pM) (human GLP-1 receptor): 0.88 pM | GDF15 activity (EC50, pM) (human GFRAL [1]): 79.4 pM
B12: MLC104 (ligand)
chain: B1 chain with K32G, K86Q, P107K
modifications: Moiety A (HOOC-(CH2)16-CO-gGlu-2XADO) on 76K of Linker (107K of fusion polypeptide)

GLP-1 activity (EC50, pM) (human GLP-1 receptor): 1 pM | GDF15 activity (EC50, pM) (human GFRAL [1]): 78.9 pM
B13: MLC046 (ligand)
chain: B1 chain with K32G, K86Q, P91K
modifications: Moiety A (HOOC-(CH2)16-CO-gGlu-2XADO) on 60K of linker (91K of fusion polypeptide)

GLP-1 activity (EC50, pM) (human GLP-1 receptor): 2.8 pM | GDF15 activity (EC50, pM) (human GFRAL [1]): 77.6 pM
B14: MLC017 (ligand)
chain: B1 chain with K32G
modifications: Moiety A (HOOC-(CH2)16-CO-gGlu-2XADO) on 55K of Linker (86K of fusion polypeptide)

GDF15 activity (EC50, pM, 1% HSA) (human GFRAL [2]): 11.3 pM | GDF15 activity (EC50, pM) (human GFRAL [1]): 8.1 pM
B15: Native GDF15 (ligand)
chain: ARNGDHCPLGPGRCCRLHTVRASLEDLGWADWVLSPREVQVTMCIGACPSQFRAANMHAQIKTSLHRLKPDTVPAPCCVPASYNPMVLIQKTDTGVSLQTYDDLLAKDCHCI
